Target: T1, Csm1/Lrs4 complex (S. cerevisiae, UniProt P25651 1-190; Q04087 1-347)
T1 sequence (looked up) 1: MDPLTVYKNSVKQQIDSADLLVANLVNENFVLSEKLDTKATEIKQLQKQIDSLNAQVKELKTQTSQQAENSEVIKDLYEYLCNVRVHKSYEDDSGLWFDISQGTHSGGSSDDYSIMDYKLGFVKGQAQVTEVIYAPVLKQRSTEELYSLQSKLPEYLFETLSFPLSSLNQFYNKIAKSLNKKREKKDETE
T1 sequence (looked up) 2: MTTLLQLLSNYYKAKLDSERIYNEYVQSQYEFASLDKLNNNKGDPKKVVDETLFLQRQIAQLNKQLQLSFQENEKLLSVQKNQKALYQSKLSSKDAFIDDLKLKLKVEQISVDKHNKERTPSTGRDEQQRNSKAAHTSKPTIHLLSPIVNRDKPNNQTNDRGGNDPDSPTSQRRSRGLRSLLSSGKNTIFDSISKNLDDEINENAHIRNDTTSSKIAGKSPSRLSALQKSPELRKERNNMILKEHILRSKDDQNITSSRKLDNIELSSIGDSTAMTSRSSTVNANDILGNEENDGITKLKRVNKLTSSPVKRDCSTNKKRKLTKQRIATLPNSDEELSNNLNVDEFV
Test: SEC

stoichiometry N: ≤ 4 MIND complexes per Csm1/Lrs4 complex
B1: purified four-protein MIND (Mtw1 including Nsl1, Nnf1, and Dsn1) kinetochore complex (complex, S. cerevisiae)
chain 1: MSAPTMRSTSILTEHLGYPPISLVDDIINAVNEIMYKCTAAMEKYLLSKSKIGEEDYGEEIKSGVAKLESLLENSVDKNFDKLELYVLRNVLRIPEEYLDANVFRLENQKDLVIVDENELKKSEEKLREKVNDVELAFKKNEMLLKRVTKVKRLLFTIRGFKQKLNELLKCKDDVQLQKILESLKPIDDTMTLLTDSLRKLYVDSESTSSTEEVEALLQRLKTNGKQNNKDFRTRYIDIRTNNVLRKLGLLGDKEDEKQSAKPDARTQAGDIVSIDIEEPQLDLLDDVL
chain 2: MSQGQSKKLDVTVEQLRSIYHQFHDILEEKTDLHLPKKEYDDDAVRREVQIQLQEFLLSAMTMASKSLEVVNADTVGKTVKQLIMESQEKYMEPFDLDLNEQVRKMYQEWEDETVKVAQLRQTGPAKINEVYNNSKDEYLAQLDGRIGVLQARMMQQQSADHDDSTDDADDHINWEHIKQDYVASLNELYQTQQDLPKVRYNVEKVKRLMDFLEED
chain 3: MVNSHGIRYIRLKQVFNRALDQSISKLQSWDKVSSCFPQYVNSKQGAINVANCQRQLTEFWTELCQREFKEIMEERNVEQKLNELDELILEAKERYTDRDQDEVNKGPAIDELSSKELVECHLYSQRMHAIHEIDERLAKVNEMNDQLAQELKDLETQVEVEKNEIGKMYDEYLGSHTDQPANVLLVQSLNDMVLELKENY
chain 4: MSLEPTQTVSGTPPMLHQRTHKQVYPLRMETIPILESDSKATLQSNEPTQKDEEETEYFENKQSVSNLSPDLKFKRHKNKHIQGFPTLGERLDNLQDIKKAKRVENFNSSAPIADDNHSGDATANATANATANATANVNASAMPAPYMPYYYYYHPMNAPTPAMIPYPGSPMHSIMPNSSLQPFYSQPTAAGGPDMTTPQNISSSQQLLPAPQLFPYGSFHQQQLQQPHYIQRTRERKKSIGSQRGRRLSMLASQANGGSTIISPHKDIPEEDFYTVVGNASFGKNLQIRQLFNWCLMRSLHKLELKAKNQEEEGELEHLTKKSKLESTKAETDYVDPKRLAMVIIKEFVDDLKKDHIAIDWEDEEKYEDEDEEKILDNTENYDDTELRQLFQENDDDDDDDDEVDYSEIQRSRRKFSERRKALPKEPKKLLPNSKNVENTKNLSILTSKVNAIKNEVKEWAVTLDTSRPDLEWQELTSFSSQPLEPLSDTEEPDLAIADVETKLETKVDELRYQSHILNSHSLALNEITNSKVNKLNIETMRKISSETDDDHSQVINPQQLLKGLSLSFSKKLDL

Reference: paper PMC2955198 (Cell, 2010)
